The source of these data is paper PMC3794858, “NECAP 1 Regulates AP-2 Interactions to Control Vesicle Size, Number, and Cargo During Clathrin-Mediated Endocytosis” (PLoS Biology, 2013).

Test [1] has as its target T1, 15N-labeled PHear (NECAP 1 PHear domain, GST cleaved) (mouse, UniProt Q9CR95 1-133).
T1 construct: NECAP 1, PHear domain, residues 1-133; Uniformly 15N-labelled for NMR; source: E. coli BL21, purified (GST fusion cleaved with thrombin, S75 gel filtration)
T1 sequence (looked up): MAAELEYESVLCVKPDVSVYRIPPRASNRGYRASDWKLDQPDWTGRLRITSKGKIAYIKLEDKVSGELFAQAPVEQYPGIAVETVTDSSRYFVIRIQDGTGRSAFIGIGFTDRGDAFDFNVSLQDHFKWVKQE
Kind of test: NMR titration; 1H-15N HSQC of 15N-labeled PHear (0.15 mM) titrated with unlabeled peptide, 30°C, 25 mM sodium phosphate pH 7.2, 75 mM NaCl, 0.5 mM EDTA, 3 mM DTT. The settings on record: both partners purified.

Test [2] concerns the target T2, 15N-labeled PHear (NECAP 1 PHear domain, GST cleaved) (mouse, UniProt Q9CR95 1-133).
T2 chain: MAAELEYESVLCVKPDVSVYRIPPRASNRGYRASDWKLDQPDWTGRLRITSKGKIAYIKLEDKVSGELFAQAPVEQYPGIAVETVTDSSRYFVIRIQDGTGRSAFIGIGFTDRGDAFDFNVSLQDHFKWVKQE
Description: NMR; I106 peak.

In test [3] the target is T2, 15N-labeled PHear (NECAP 1 PHear …). Kind of test: NMR; L47 peak.

Where no end group is shown, it is not given here.

B1: AP180 FxDxF-motif peptide (Ac-VDIFGDAFAAS) (peptide)
peptide: Ac-VDIFGDAFAAS
notes: peptide derived from AP180; also called AP-180 peptide; FxDxF-motif peptide derived from AP180; source: synthetic peptide (Sheldon Biotechnology Center, McGill University), HPLC purified
Consider B1, for which the binding result in test [1] is recorded as “binds”.

B2: β2-linker peptide (Ac-SQGDLLGDLLNLDLPPVN) (peptide)
peptide: Ac-SQGDLLGDLLNLDLPPVN
notes: peptide from the linker of β2-adaptin; the printed peptide has no G there; also called unlabeled β2-linker; source: synthetic peptide (Sheldon Biotechnology Center, McGill University), HPLC purified
As for B2, the equilibrium dissociation constant (Kd) in test [2] was 420 µM; in test [1] it was 480 µM; in test [3], 540 µM.

For orientation: Kd means the constant that tells how readily two partners part at equilibrium. A low value points to higher affinity.
